# Measured values: paper PMC7835958 (2021)
# Target: T1, LEDGF/p75 IBD (Homo sapiens, UniProt O75475)
# T1 chain: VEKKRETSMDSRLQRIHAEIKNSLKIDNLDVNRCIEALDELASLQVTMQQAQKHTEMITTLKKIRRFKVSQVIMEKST
# Assay: NMR
binder,measurement,value
GTNLRRFRAVFGESGGGGGSGEDEQFLGFGSDEEVRVR [MLL 123-160],Kd,64 µM
